Test results: patent US20140087995A1 (published 2014)
Numbered stars: 1 amine (or outer) side, 2 acyl side, 3 side chain; on linkers, the order of the positions; unused ones are H or OH. Bridge positions count the residues as written; N and C are the ends. Side chains are listed from the residue outwards. Ends that are not written are not given here. * marks the point of attachment. C20 diacid = O=C(O)CCCCCCCCCCCCCCCCCCC(=O)*; γGlu = O=C(O)[C@H](CCC(=O)[*:2])N[*:1]; AEEA = NCCOCCOCC(=O)O

T1: human amylin receptor (amylin 3(a) receptor: human calcitonin receptor plus RAMP-3) (human, UniProt P30988 25-474; O60896 24-148)
T1 sequence (looked up) 1: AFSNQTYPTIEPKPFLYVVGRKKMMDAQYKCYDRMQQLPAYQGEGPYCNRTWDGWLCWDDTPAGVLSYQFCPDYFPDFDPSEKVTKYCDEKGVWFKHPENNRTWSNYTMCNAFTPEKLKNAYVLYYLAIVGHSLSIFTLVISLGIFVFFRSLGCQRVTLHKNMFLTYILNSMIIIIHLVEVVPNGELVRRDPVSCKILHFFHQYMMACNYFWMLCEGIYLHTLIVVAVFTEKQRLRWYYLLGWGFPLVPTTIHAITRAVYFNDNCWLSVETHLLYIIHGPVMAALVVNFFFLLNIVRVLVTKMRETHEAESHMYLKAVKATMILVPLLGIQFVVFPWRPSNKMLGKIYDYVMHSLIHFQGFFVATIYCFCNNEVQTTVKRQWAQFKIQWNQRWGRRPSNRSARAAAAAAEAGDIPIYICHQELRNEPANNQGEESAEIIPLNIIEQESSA
T1 sequence (looked up) 2: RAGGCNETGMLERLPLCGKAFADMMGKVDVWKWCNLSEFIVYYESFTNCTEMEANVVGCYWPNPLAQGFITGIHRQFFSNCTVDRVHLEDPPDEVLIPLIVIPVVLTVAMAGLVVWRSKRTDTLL

T2: human calcitonin receptor (human, UniProt P30988 25-474)
T2 sequence (looked up): T1 sequence (looked up) 1

B1: N^ε-[(4S)-4-carboxy-4-(19-carboxynonadecanoylamino)butanoyl]Lys[Arg1,Arg17,Pro21,Pro27,His35]-h-amylin (peptide)
peptide: K([γGlu-C20 diacid])RCNTATCATQRLANFLRHSSPNFGAIPSSTNVGSHTY-NH2
modifications: disulfide 3-8; N-terminus assumed
SMILES: CC[C@H](C)[C@H](NC(=O)[C@H](C)NC(=O)CNC(=O)[C@H](Cc1ccccc1)NC(=O)[C@H](CC(N)=O)NC(=O)[C@@H]1CCCN1C(=O)[C@H](CO)NC(=O)[C@H](CO)NC(=O)[C@H](Cc1c[nH]cn1)NC(=O)[C@H](CCCNC(=N)N)NC(=O)[C@H](CC(C)C)NC(=O)[C@H](Cc1ccccc1)NC(=O)[C@H](CC(N)=O)NC(=O)[C@H](C)NC(=O)[C@H](CC(C)C)NC(=O)[C@H](CCCNC(=N)N)NC(=O)[C@H](CCC(N)=O)NC(=O)[C@@H](NC(=O)[C@H](C)NC(=O)[C@@H]1CSSC[C@H](NC(=O)[C@H](CCCNC(=N)N)NC(=O)[C@@H](N)CCCCNC(=O)CC[C@H](NC(=O)CCCCCCCCCCCCCCCCCCC(=O)O)C(=O)O)C(=O)N[C@@H](CC(N)=O)C(=O)N[C@@H]([C@@H](C)O)C(=O)N[C@@H](C)C(=O)N[C@@H]([C@@H](C)O)C(=O)N1)[C@@H](C)O)C(=O)N1CCC[C@H]1C(=O)N[C@@H](CO)C(=O)N[C@@H](CO)C(=O)N[C@H](C(=O)N[C@@H](CC(N)=O)C(=O)N[C@H](C(=O)NCC(=O)N[C@@H](CO)C(=O)N[C@@H](Cc1c[nH]cn1)C(=O)N[C@H](C(=O)N[C@@H](Cc1ccc(O)cc1)C(N)=O)[C@@H](C)O)C(C)C)[C@@H](C)O
notes: N-terminal extension by Lys at position -1; also called compound 44
B2: N^ε1-[2-[2-[2-[[(4S)-4-carboxy-4-(19-carboxynonadecanoylamino)butanoyl]amino]ethoxy]ethoxy]acetyl]-[Arg17,Pro21,Pro27,Pro34,His35]-h-amylin (peptide)
peptide: K([AEEA-γGlu-C20 diacid])CNTATCATQRLANFLRHSSPNFGAIPSSTNVGPHTY-NH2
modifications: disulfide 2-7; N-terminus assumed
SMILES: CC[C@H](C)[C@H](NC(=O)[C@H](C)NC(=O)CNC(=O)[C@H](Cc1ccccc1)NC(=O)[C@H](CC(N)=O)NC(=O)[C@@H]1CCCN1C(=O)[C@H](CO)NC(=O)[C@H](CO)NC(=O)[C@H](Cc1c[nH]cn1)NC(=O)[C@H](CCCNC(=N)N)NC(=O)[C@H](CC(C)C)NC(=O)[C@H](Cc1ccccc1)NC(=O)[C@H](CC(N)=O)NC(=O)[C@H](C)NC(=O)[C@H](CC(C)C)NC(=O)[C@H](CCCNC(=N)N)NC(=O)[C@H](CCC(N)=O)NC(=O)[C@@H](NC(=O)[C@H](C)NC(=O)[C@@H]1CSSC[C@H](NC(=O)[C@@H](N)CCCCNC(=O)COCCOCCNC(=O)CC[C@H](NC(=O)CCCCCCCCCCCCCCCCCCC(=O)O)C(=O)O)C(=O)N[C@@H](CC(N)=O)C(=O)N[C@@H]([C@@H](C)O)C(=O)N[C@@H](C)C(=O)N[C@@H]([C@@H](C)O)C(=O)N1)[C@@H](C)O)C(=O)N1CCC[C@H]1C(=O)N[C@@H](CO)C(=O)N[C@@H](CO)C(=O)N[C@H](C(=O)N[C@@H](CC(N)=O)C(=O)N[C@H](C(=O)NCC(=O)N1CCC[C@H]1C(=O)N[C@@H](Cc1c[nH]cn1)C(=O)N[C@H](C(=O)N[C@@H](Cc1ccc(O)cc1)C(N)=O)[C@@H](C)O)C(C)C)[C@@H](C)O
notes: also called compound 58
B3: N^ε1-[(4S)-4-carboxy-4-(19-carboxynonadecanoylamino)butanoyl]-[Arg17,Pro21,Pro27,His35]-h-amylin (peptide)
peptide: K([γGlu-C20 diacid])CNTATCATQRLANFLRHSSPNFGAIPSSTNVGSHTY-NH2
modifications: disulfide 2-7; N-terminus assumed
SMILES: CC[C@H](C)[C@H](NC(=O)[C@H](C)NC(=O)CNC(=O)[C@H](Cc1ccccc1)NC(=O)[C@H](CC(N)=O)NC(=O)[C@@H]1CCCN1C(=O)[C@H](CO)NC(=O)[C@H](CO)NC(=O)[C@H](Cc1c[nH]cn1)NC(=O)[C@H](CCCNC(=N)N)NC(=O)[C@H](CC(C)C)NC(=O)[C@H](Cc1ccccc1)NC(=O)[C@H](CC(N)=O)NC(=O)[C@H](C)NC(=O)[C@H](CC(C)C)NC(=O)[C@H](CCCNC(=N)N)NC(=O)[C@H](CCC(N)=O)NC(=O)[C@@H](NC(=O)[C@H](C)NC(=O)[C@@H]1CSSC[C@H](NC(=O)[C@@H](N)CCCCNC(=O)CC[C@H](NC(=O)CCCCCCCCCCCCCCCCCCC(=O)O)C(=O)O)C(=O)N[C@@H](CC(N)=O)C(=O)N[C@@H]([C@@H](C)O)C(=O)N[C@@H](C)C(=O)N[C@@H]([C@@H](C)O)C(=O)N1)[C@@H](C)O)C(=O)N1CCC[C@H]1C(=O)N[C@@H](CO)C(=O)N[C@@H](CO)C(=O)N[C@H](C(=O)N[C@@H](CC(N)=O)C(=O)N[C@H](C(=O)NCC(=O)N[C@@H](CO)C(=O)N[C@@H](Cc1c[nH]cn1)C(=O)N[C@H](C(=O)N[C@@H](Cc1ccc(O)cc1)C(N)=O)[C@@H](C)O)C(C)C)[C@@H](C)O
notes: also called compound 60
B4: N^ε1-[(4S)-4-carboxy-4-(19-carboxynonadecanoylamino)butanoyl]-[His14,Arg17,Pro21,Pro27,His35]-h-amylin (peptide)
peptide: K([γGlu-C20 diacid])CNTATCATQRLAHFLRHSSPNFGAIPSSTNVGSHTY-NH2
modifications: disulfide 2-7; N-terminus assumed
SMILES: CC[C@H](C)[C@H](NC(=O)[C@H](C)NC(=O)CNC(=O)[C@H](Cc1ccccc1)NC(=O)[C@H](CC(N)=O)NC(=O)[C@@H]1CCCN1C(=O)[C@H](CO)NC(=O)[C@H](CO)NC(=O)[C@H](Cc1c[nH]cn1)NC(=O)[C@H](CCCNC(=N)N)NC(=O)[C@H](CC(C)C)NC(=O)[C@H](Cc1ccccc1)NC(=O)[C@H](Cc1c[nH]cn1)NC(=O)[C@H](C)NC(=O)[C@H](CC(C)C)NC(=O)[C@H](CCCNC(=N)N)NC(=O)[C@H](CCC(N)=O)NC(=O)[C@@H](NC(=O)[C@H](C)NC(=O)[C@@H]1CSSC[C@H](NC(=O)[C@@H](N)CCCCNC(=O)CC[C@H](NC(=O)CCCCCCCCCCCCCCCCCCC(=O)O)C(=O)O)C(=O)N[C@@H](CC(N)=O)C(=O)N[C@@H]([C@@H](C)O)C(=O)N[C@@H](C)C(=O)N[C@@H]([C@@H](C)O)C(=O)N1)[C@@H](C)O)C(=O)N1CCC[C@H]1C(=O)N[C@@H](CO)C(=O)N[C@@H](CO)C(=O)N[C@H](C(=O)N[C@@H](CC(N)=O)C(=O)N[C@H](C(=O)NCC(=O)N[C@@H](CO)C(=O)N[C@@H](Cc1c[nH]cn1)C(=O)N[C@H](C(=O)N[C@@H](Cc1ccc(O)cc1)C(N)=O)[C@@H](C)O)C(C)C)[C@@H](C)O
notes: also called compound 66

The binders below were run against T1, human amylin receptor (amylin 3(a) …) (assay: cell-based or functional assay).

| Binder | Ratio hCT/hAmylin funct. | hAmylin-R funct. EC50 (pM) |
| --- | --- | --- |
| B1 | 24 | 198 |
| B2 | 21.9 | 47 |
| B3 | 15.3 | 351 |
| B4 | 20.1 | 27 |
| K([γGlu-C20 diacid])CNTATCATQRLAEFLRHSSPNFGAIPSSTNVGPHTY-NH2 (disulfide 2-7) |  | 101 |
| K([γGlu-γGlu-C20 diacid])CNTATCATQRLAEFLRHSSPNFGAIPSSTNVGPHTY-NH2 (disulfide 2-7 (inferred)) |  | 172 |

Each binder was assayed against T2, human calcitonin receptor (assay: cell-based or functional assay).

| Binder | hCTR funct. EC50 (pM) |
| --- | --- |
| B1 | 4750 |
| B2 | 1030 |
| B3 | 5360 |
| B4 | 542 |
| K([γGlu-C20 diacid])CNTATCATQRLAEFLRHSSPNFGAIPSSTNVGPHTY-NH2 (disulfide 2-7) | 1450 |
| K([γGlu-γGlu-C20 diacid])CNTATCATQRLAEFLRHSSPNFGAIPSSTNVGPHTY-NH2 (disulfide 2-7 (inferred)) | 2830 |

Molecular target: T1, human amylin receptor (amylin 3(a) …)
Assay: cell-based or functional assay
Remark: another data set of the same source

| Binder | Ratio hCT/hAmylin funct. | hAmylin-R funct. EC50 (pM) |
| --- | --- | --- |
| B1 | 24 | 198 |
| B2 | 21.9 | 47 |
| B3 | 15.3 | 351 |
| B4 | 20.1 | 27 |
| K([γGlu-C20 diacid])CNTATCATQRLAEFLRHSSPNFGAIPSSTNVGPHTY-NH2 (disulfide 2-7) |  | 101 |
| K([γGlu-γGlu-C20 diacid])CNTATCATQRLAEFLRHSSPNFGAIPSSTNVGPHTY-NH2 (disulfide 2-7 (inferred)) |  | 172 |

Molecular target: T2, human calcitonin receptor
Assay: cell-based or functional assay
Remark: another data set of the same source

| Binder | hCTR funct. EC50 (pM) |
| --- | --- |
| B1 | 4750 |
| B2 | 1030 |
| B3 | 5360 |
| B4 | 542 |
| K([γGlu-C20 diacid])CNTATCATQRLAEFLRHSSPNFGAIPSSTNVGPHTY-NH2 (disulfide 2-7) | 1450 |
| K([γGlu-γGlu-C20 diacid])CNTATCATQRLAEFLRHSSPNFGAIPSSTNVGPHTY-NH2 (disulfide 2-7 (inferred)) | 2830 |

These binders were tested against T1, human amylin receptor (amylin 3(a) …) (assay: SPA competition, displacement of 125I-rat amylin from membranes of BHK cells with human calcitonin receptor + RAMP-3 (Assay V)).
Protocol: (§1) The binding assay was performed using scintillation proximity assay (SPA) beads (RPNQ0001) from PerkinElmer and cell membranes from the Amylin 3(a)/CRE-luc cells (as described in Assay (II)) were used. Membranes were prepared in the following way; the cells were rinsed with PBS and incubated with Versene for approximately 5 min before harvesting. The cells were flushed with PBS and the cell-suspension was centrifuged for 5 min at 1000 rpm. Cells were homogenized (ultrathurrax) in a buffer containing 20 mM Na-HEPES and 10 mM EDTA (pH 7.4) and centrifuged at 20.000 rpm for 15 min. The resulting pellet was resuspended, homogenized and centrifuged (20.000 rpm, 15 min) in a buffer containing 20 mM Na-HEPES and 0.1 mM EDTA (pH 7.4, buffer 2). The resulting pellet was resuspended in buffer 2 and protein concentration was measured (BCA protein Assay, Pierce). The homogenate was kept cold during the whole procedure. The membranes were kept at −80° C. until use. The assay was performed in a 384 well Optiplate (PerkinElmer) in a total volume of 40 ul. Membranes were mixed with SPA beads. Final concentration of membranes 35 ng/μL final and SPA beads was 0.05 mg/well. Test-compounds were dissolved in DMSO and further diluted in assay buffer (50 mM Hepes, pH 7.4, 1 mM CaCl2, 5 mM MgCl₂, 0.1% OA and 0.02% Tween20). […] The final mixture was incubated with shaking at 400 rpm for 120 min at 25° C. prior to centrifugation (1500 rpm, 10 min). Samples were analyzed on TopCounter™ (Packard). The IC₅₀ was calculated using (one site binding competition analysis) GraphPad Prism5 as a measure of receptor affinity.

| Binder | IC50 [nM] |
| --- | --- |
| B1 | 0.275 |
| B2 | 0.088 |
| B3 | 0.695 |
| B4 | 0.396 |
| K([γGlu-C20 diacid])CNTATCATQRLAEFLRHSSPNFGAIPSSTNVGPHTY-NH2 (disulfide 2-7) | 0.179 |
| K([γGlu-γGlu-C20 diacid])CNTATCATQRLAEFLRHSSPNFGAIPSSTNVGPHTY-NH2 (disulfide 2-7 (inferred)) | 0.377 |

Molecular target: T1, human amylin receptor (amylin 3(a) …)
Assay: as above
Remark: another data set of the same source
Protocol: as §1

| Binder | IC50 [nM] |
| --- | --- |
| B1 | 0.275 |
| B2 | 0.088 |
| B3 | 0.695 |
| B4 | 0.396 |
| K([γGlu-C20 diacid])CNTATCATQRLAEFLRHSSPNFGAIPSSTNVGPHTY-NH2 (disulfide 2-7) | 0.179 |
| K([γGlu-γGlu-C20 diacid])CNTATCATQRLAEFLRHSSPNFGAIPSSTNVGPHTY-NH2 (disulfide 2-7 (inferred)) | 0.377 |
